These results are taken from the NTF2 design screens of Basanta et al. (2020).

A short description of the data set: protease stability score; higher = more stable; yeast display proteolysis, trypsin and chymotrypsin.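 Further: log10 excess protease needed over predicted unfolded state with 0 meaning unfolded.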
Sequence “DRRDLQLVERVLRALQTGDEDKVMENLDPNARVEYGDKEYHGREQLHEQIERDHRNMRFSIDVKRVDLHGDRAHFDATVTMNINGKPFEDRFHIDVVARNGRIKHLSMKMDPDRVKEVES” registered a protease stability score of -0.157.
The same measure for “DRREAHKRAQEMVDNFRDNDKDRIVELADKDVHARIGDKRLHGREELATFLVELARRADRVEVKSIHVQGEQIEMDMQMTVDGRERTFTLRMTYHNGKLKHLEIDPDDLRKIES”: 0.987; for “DRRETAKEVMKKISDILKENDENRLEDLMDPNAKVNVGDKRVHGRREAANQMVEEHTRYDHMDMDIRRIDVDGDKIIVIFTVTLTNNGKTDTKNVVIYFTVHNGRVQITRIRHK”: -0.157.
Take “DRRQEARDIQHDQNRALKHGDQESAQRLFDENARIKIGDRQWHGSDDVMTEVREQHKKVDSIRIHVVSIDVRGDQYDINVQYNLHYDGDNDTFRATQRLKKHNGSVRVVDQHEQ”: the protease stability score was -0.276.
With “DRSQVESAMRKALHNDPREHEKMFDKDARIQIGDTTFTGQETVLRVIRQLLTKADHIQINDYEISGNKVRIDVQVEVNGRRVRVELDFTVSNGRIKHATWKARSEEELHRIKENLR”, the protease stability score was 0.239.
On to “DRTAEKVLRQFLHAIRDNNPEQMVDLMDPNVTLEIGDKEITGRESAARTAKTRNDEQRMSLSDYRIDVKGDRITADIDQYNEHNGKPRRHQYILDVNIHNGKIKSLVYESDK”, for which the protease stability score was -0.029.
“DRTEILKHMFDDLAQVRRDGDPEKLNELMDEDVKARYGDKEYHGREDVARNIHRLASQADHVHIQLDRMSVDNGKARLEADVRIEHNGKVDEVRVEIRADVDNGRVNLREMIYR” returned a protease stability score of 0.839.
“DRTKTAKKVWDDFRSIMENNDPKEAEKLFDENAKADLGSKQVHGREQMVEMLRELAERVDHVEIRMKTVTDDNGQLNIEAEVRAEINGKQHTWRNQLNVVQQGDKRRIVSAKYG” registered a protease stability score of -0.42.
“DSDAARELVKALNTGNEEELKHMVDPNARARVGDKRLHGRDELFRFWHKLKRHVDHRRVNKVEIHGEKAHVDVQLNVDGRNIRVNIVMEAHNGRVKEFTIEFRDRDARKEFRNQVD” gave a protease stability score of 1.16.
In turn, “DSDAARILVEFWTALQKGDHDRLKQNMDPNAKMKIGDHTLHGREQIAEHATKLKREMRIDIRLKSFDDDGDHAILKFEMRVDVNGKPFSMDVTVNVKAHNGHLVKVNFRIPEKDLQRLNS” gave a protease stability score of 0.633.
Sequence “DSDEIRKFFQQLHTNDEKKLRRNFDKDARFEVGDKDYHGQENAQEAMAQIFQRADHVTYKTVKVEGDKVDMNLQIQVNGKQFDLRLHAKFDNGRLKEASLHVTSEEQHTEVLEMLS” showed a protease stability score of 0.643.
As for “DSDEVRKFNEKVKTGNPKHLQDMFDENAKVQIGNKDFRGREHVQTVIDKIERDVDHKEIKRMEVKGDHFEIDAIYNINGHNIRMIIKIQVRNGKIQNMTVEFTNEEQQEIFEENVQ”, the protease stability score turned out to be 0.423.
For the sequence “DSDKIDNVVKTIMHDLRKGNPERVMKNADKDVKIVVGDKRYHGRETLETLMKEMVDQADHIQFHSVNIRGEKVVVVAVLQHNGVNVDVQFNMEIDNGRATKVELKVRNPEQQKKFDS”, the protease stability score stood at 0.583.
As to “DSDKLRKSAKKFLDLQRTGNEDELKKMIDPNAKAVVGDKEYHGSTEIAHALARMRREVDHITLDRFQFKGNRLKANMTYQHNGRRDRFVVTVTMHNGRVSHITFKST”, the protease stability score turned out to be 0.38.
“DSDLVRKMKKFEENRRTGNEHEVDKMIDPNAKLQVGDKTIHGRERQRDYMRELKNSARLDLKIDRVHDQPGRVVATFILKVNINGRPDTIRVKLVIQWHNGEIQRAELRVPEEWMDRFKQ” registered a protease stability score of 0.642.
For the sequence “DSDQSKREMDKFLEMVSTGDPDEVNRLLDKDAHAHVGDQTYHGREEISHMWKELREKIDHLEVHDYKVNGNKLEVDMHATINGQNVVFTVVAVLRNGHFESVEVQYRSEEEEEKVKR”, the protease stability score stood at 0.452.
“DSEAAKRAETFIRNLVQGNEDELRDMADKDVNFQVGDKTVHGREQWQEEVSRTEKEARVEMRVDDYRDEPGTVKLNAKVTIEYNGQPFTVNLHVEIHFKNGKMQRAVFEIDPEVQKEVES”: the protease stability score was 0.692.
On to “DSEAEDLLRRILDAIRTNNREELHRQIDPNAHFEIGDREFKGMTQWATEIVRQAKEIRVDQSFHSISIRNGKLSARVEQVNETNGKPHSRQFKLRMKWHDGQVKFLSMEDDG”, for which the protease stability score was found to be 0.362.
Consider “DSEAHELADTIMHALKHNNPDQLKEQFDPNVRVDIGNNRYHGREQFATEVIRTLREWRVEYKSFDQRNSGDKVDLRIRFVVNVNGRPHRYSVTVHLNFKDGRVKKMKVEMDPDQERKQTQ”, for which the protease stability score is 0.914.
Consider “DSEAQKIAEKLHEAWNTNNPNEAQHLMDPNAHVRVGDKEIDGMDQYVREMQRLLDKLRLEVKDWDVRAHNGNVTLRANARVDVNGQPQEYTYVIVMQVKNGRVKELHLHIDEEELRTLES”, for which the protease stability score was 1.02.
Consider “DSEDLVRKFITEWEQAVQQGDEKQLQELMDEDAHVSVGDTKLHGREDIARELAEQIRHADHVQFRIESLSVHGDHVNLNQKVRYKHNGKTDSSRYRLQAIAHGDKVTLKSFHDG”, for which the protease stability score is -0.28.
As for “DSEEAKKADEVVQTNDEDRLRDLLDEDARIIIGEFTFHGRHKAEEAVKRFQDAVDHIEIEDYDVQGNEITVVFTVSFNGKKMRFKASFHLRNGRLKHMSMTFTDPDQEREMSNLLR”, the protease stability score worked out at 0.56.
The sequence “DSEEEKTISEQLRTNNPDDAEKLVDENARIVVGDKVIDGRKDAHRFFKRLTEQIDHLQVDSLTVKNGRFSLDFRFNVNGRDLRMVMKVVVDNGKIQYMQLDARDHDIQEHMRDALR” showed a protease stability score of 0.967.
The sequence “DSEERHDFAHKVMEVFQQGDPDQMRDMADPNVRLHVGEKNVTGRDRVRTALTEFRQRVDHVQVDHVHVTGDKIVIHATVEINGRRRRVIIVARVRNGRIHEIEVDLK” came in with a protease stability score of 1.61.
On to “DSEERKTVARELNKVLKENDEEKFKRLADENVKLHYGDKEFHGRERAEQVLREWKKRIDHLEVNHVNNTGDRIVIHATVNVNGVNVHLEFNARLDNGHVTSVRLQYRDEEDRKRLES”, for which the protease stability score stood at 0.814.
Take “DSEKDKDWLRKLQSAVERNDPDSVMRLLDPNAEANYGDQTLHGREHIRKMFSELLKHADHVEVTDVRAHNGRLQLDVIMTINGRKSRYDLQFQFSNGRVKKVSVHSR”: the protease stability score was 1.26.
The value for “DSEKIKDVARQLVRQIEENNPDEIVKLLDPNARADYGDKRISGHEKIADELRKFHERADRIRVETVEVHNGRIVIDLHVNINGRMQRFHVFADLHNGKIKRIEFQTG” was 1.54.
Sequence “DSEKMHEINKALKTNDPDKLEQLMDKDVRAKVGDKTFHGREEVVKMWRDLYKQADHVNVDRVDVQGEKIDATVRADFNGTSVDYKVHISASNGRIKHITVTVTDEERHRQLQSVLG” showed a protease stability score of 1.31.
As to “DSEKNEALQRAVEIWNSNDPDKLKKQFDPNARHTYGDTVVHGRENLARRLEQLKRESRLTFQVTHLDVHNGKVTADVTIVEEHNGKPDTKRMDVQANVQNGRFKSVYVHESS”, the protease stability score was -0.003.
The sequence “DSEKYLKDLNSNLLRILQTNDEKKLRDLVDKDVKITVGDKSYHGREEFAKVLRTLLNEHDKWRVHYQSIHQHNGKLRAVIDLKAENNGQTLSRNLDITAEERNGEVHVKHAQIG” showed a protease stability score of 1.08.
Sequence “DSENVKVVREFIKAVERNDHQKLRDLVDPNATAQIGDKEYTGMDDIVTRIIETIRQLRFKIKLHHVDNHNGVVNVKAVFTFEHNGKPDKREVDIRVEITNGKVTNFQYQEHK” had a protease stability score of 2.08.
“DSERAKEVVKEFEHNDRQKFRDLFDEDASVTIGNRTYHGRHEVERALKRHIDRVDHVKINSVQIRGERIHMEAVFNINGQEFTLQMTLQLSNGKVKTWVLRVTDPDLKRKLHKNME” yielded a protease stability score of 1.15.
As to “DSERAKQWTHFLRLMETGNEEDLSKMADPNARFQVGDETYKGKDDVTKWARTVKTHMRVTYKRLNNDDEEGHARIEADYQYDHNGKPEEDKNSLVLSFHNGQIKEVVIHHVS”, the protease stability score was 0.164.
Consider “DSERASEAARTFVDAMRTNDEKQFNELFDPNARVRIGDEKVHGMDRITDQLHNLNKKADHNEVLDYKVNGNTAVVHFQVDHNGQTRRYRIVITMHNGRVHEMQVNTK”, for which the protease stability score was determined as 0.458.
“DSERRQREAENFFKNLQTGNKHEFEKLFPPDVRAQVGEKEIHGREEAQKWWKNIHDRADHMQIDHFDVDGNKITFDMRMNVDGHEIRMRLTIRLENGQYRSLTAEVRDEDAERRLKS”: the protease stability score came to 0.672.
Take “DSEVLDVLTSIVKNIHNGNPDEVMKQMDPNARVQVGDDRFHGDRKQQEDVQTLLDTMEVNIHITSVDFDGDKVTVRFKVEYNVNGRPFRIEAEMQAVAKNGRIQDLKVRIDKQFLSELKS”: the protease stability score stood at 0.858.
In the case of “DSHAENLLQQVLKALETGDQKRVMELFDPNAKVRYGDKTLHGREEIRKYVKKLKDEMQIRIEVRSVTVQGNKITADVVVRADVDGKPVEMRVRIHVEFENGKIHSLSVDMDPEQVKELEK”, the protease stability score is 1.56.
On to “DSHAHNVADEVMRALQENDEDSLRQLLDPNVEFHIGDTTYHGREQVRHWITRLKEQMRVKFDLKDLKVQGDTVHIKLRLEQEHNGQPRQHNVVINVKIDNGRVKKISFQHTK”, for which the protease stability score was found to be 1.64.
In turn, “DSHEKAEKWARKLNQVWEHNDPDRAMEMVDPNVRVDIGDRRYHGREDWRKMVEHLNKRVDHMEFKFDQVDAHNGKIRITVTFTYTIDGQERTERLVFHVDNVNGRLVAQKAHDG” came in with a protease stability score of 0.343.
Consider “DSHLEHKAHEWVKAVNENDPDRLVQLMDKDVKIDVGDKKFSGRENYATEVKKEQDEARVEWKDVKLSADNGKLELQADVVRRHNGQPQRWKVENIYTDKNGVAKYLTNKSKP”, for which the protease stability score is -0.423.
Take “DSHLQEEVERFWKQLEHGNRQNLRELADEEVNFVYGDKTIHGREKAATHMSKRVRKIQIEWKTYSAEVHNGKLDATAEWRADHNGKPKDVKMTFYVKVHNGRIKEVNIQEEK”: the protease stability score worked out at 0.178.
“DSHQQAREMVRELQRILETNDTDKWRHMFDPNARAQYGDKEYHGRDQVTHYLQEQTQRVDSVRVNIDEVDVSGDKLRVVFTLVRVHNGEEKSDTYVFVLRFHGDHARIESFRRK” had a protease stability score of 0.687.
“DSHTIAKELMKTWQDAARNNDEDKLKELIDKDASASVGDKTFHGRESFARHVQEQARRADHLEVRLESMSINGDHIHLQFVVRYNVNGKESSDRYVVIFHKVNGKFRVRQIKQR” came in with a protease stability score of 0.721.
Regarding “DSKELARRFHTELLENLRHNDSERLRRLLDEDARVHVGDKEVHGREQFADEQTKIMEHFDRVELRIREVTIEEGRVKVLIHFDADNNGEKHTDNSEVTFDNQGDKLTNKTQHES”, the protease stability score was -0.13.
With “DSKEVRKAEELAKAVRTGDPDTIVKLMDPNARLKVGDREYRGQKDVQKFLKRVLDEIRVKLDVQDIKAHNGKVKVRATVVQRKNGTPHHRTMRMWVQMNNGHVEELSVSNDS”, the protease stability score was found to be 0.401.
Sequence “DSKQRAKEFVKEFQRVLQKGDPDQAEKMADKDVRINVGDKTYHGREEMWKMAQEWQRKYDEMSITVSRIQTRPGRIVANAKLKLDNNGTTDDTHLVIVVREHNGHYRAVHIRLG” came in with a protease stability score of 0.992.
Turning to “DSKVRRVAERFMHAIQEGNEDDVRKLADKNVQIHVGEKELRGRDQLAKDVSDRTRQIRLHIKHLSIHVQGDKVIVRFDVVETHNGKPHRYRAKAEMRVRNGRVTRYTVKHDG”, the protease stability score came to 0.633.
